Reference: US20160194391A1 (AstraZeneca / MedImmune, published 2016)
Where two headings read alike, the source gives them in different places.

B1: 1H1 chimeric mAb (antibody, V domains shown)
VH: QELKESGGRLVTPGGSLTLSCTASGLTLGSYSMTWVRQAPGKGLEWMGVIGVGGTLNYASWAQGRFTISKPSSTTVDLKMTSLTTEDTATYFCARGTYSGDSIWGPGTLVTVSS
VL: DVVMTQTPSSTSAAVGGTVTIKCQASQSISSWLAWYQQKPGQPPKPLIVRASILTSGVPSRFKGSRSGTEYTLTISGVQREDAATYYCLGGDGHVSNFGGGTELEILR
notes: Rabbit/human chimeric IgG (human IgG1, kappa); HEK293; also called mAb 1H1
B2: 45G5 chimeric mAb (antibody, V domains shown)
VH: QSVEESGGRLVTPGTPLTLTCTVSGFSLSVYPINWVRQAPGKGLGWIGIINDVDDTAYSAWAKGRFTISKASSTTVDLKITSPTTEDTATYFCARGYLSYAYAGDAFDPWGPGTLVTVSS
VL: AVLTQTPSPVSAAVGGTVTIKCQSSQSIYNNNLLSWYQQKPGQPPRLLIHFASTLASGVPDRFSGSGSGTQFTLTISGVQCDDAATYYCLGGYDDDADTAFGGGTEVVVV
notes: Rabbit/human chimeric IgG (human IgG1, kappa); HEK293; also called mAb 45G5
B3: 22H8 chimeric mAb (antibody, V domains shown)
VH: QSLEESGGRLVTPGTPLTLTCTVSGFSLSTYTMNWVRQSPGKGLEWIGAISYDGGTAYANWAKGRFTISKTSTTVDLQIASPTTEDTATYFCARGFYVYAYIGDAFDPWGPGTLVTVSS
VL: AVLTQTPSPVSATVGGTVTIKCQSSQTVYKNNLLSWYQQKPGQPPKLLIYLASTLASGVPSRFSGSGSGTQFTLTISGVQCDDAATYYCLGGYDDDADTAFGGGTEVVVVR
notes: Rabbit/human chimeric IgG (human IgG1, kappa); HEK293; also called mAb 22H8
B4: 31A12 humanized scFv (mammalian expressed) (scFv)
scFv: DIQLTQSPSFLSASVGDRVTITCQASEDIESYLAWYQQKPGKAPKLLIYSASTLTSGVPSRFSGSGSGTEFTLTISSLQPEDFATYYCLGADDTTTVFGGGTKVEIKGGGGSGGGGSGGGGSGGGGSEVQLVESGGGLVQPGGSLRLSCTASGFSLSSYWMTWVRQAPGKGLEWVGTIATSSTYYASWAKGRFTISRDNSKNTLYLQMNSLRAEDTAVYYCARGLTTDYDLDLWGQGTLVTVSSGPPPPHHHHHH
notes: also called Anti IL-23 31A12 scFv; 31A12 scFv
B5: 31A12c-PEG20 (scFv)
scFv: DIQLTQSPSFLSASVGDRVTITCQASEDIESYLAWYQQKPGKAPKLLIYSASTLTSGVPSRFSGSGSGTEFTLTISSLQPEDFATYYCLGADDTTTVFGGGTKVEIKGGGGSGGGGSGGGGSGGGGSEVQLVESGGGLVQPGGSLRLSCTASGFSLSSYWLTWVRQAPGKGLEWVGTIATSSTYYASWAKGRFTISRDNSKNTLYLQLNSLRAEDTAVYYCARGLTTDYDLDLWGQGTLVTVSS
modifications: C-terminal azidohomoalanine (Aha) conjugated to 20 kDa linear PEG bis-alkyne
B6: 9C8 Hum scFv v3-2 (scFv)
scFv: DIQMTQSPSSVSASVGDRVTITCQASQSISNELSWYQQKPGKAPKLLIYRTSTLASGVPSRFSGSGSGTDFTLTISSLQPEDFATYYCQQGYNSNDVDNVFGGGTKVEIKGGGGSGGGGSGGGGSGGGGSEVQLVESGGGLVQPGGSLRLSCAASGIDLSSYDMSWVRQAPGKGLEWVGYIYTDSSTYYANWAKGRFTISRDNSKNTLYLQMNSLRAEDTAVYYCARGSTDYAFDTRLDLWGQGTLVTVSSGPPPPPHHHHHH

Experiments:
[1] = biological target: T1, human dimeric IL-23 (eBiosciences 34-8239) (human, UniProt P29460 23-328; Q9NPF7 20-189); test: cell-based or functional assay
T1 sequence (looked up) 1: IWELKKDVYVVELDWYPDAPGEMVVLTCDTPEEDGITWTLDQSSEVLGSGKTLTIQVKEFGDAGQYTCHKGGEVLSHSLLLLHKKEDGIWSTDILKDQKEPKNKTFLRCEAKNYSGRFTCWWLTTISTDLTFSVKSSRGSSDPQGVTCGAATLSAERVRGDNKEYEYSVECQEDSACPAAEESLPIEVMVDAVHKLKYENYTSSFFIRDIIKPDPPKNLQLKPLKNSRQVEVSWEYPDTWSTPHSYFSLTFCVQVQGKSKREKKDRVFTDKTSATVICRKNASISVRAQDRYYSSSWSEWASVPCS
T1 sequence (looked up) 2: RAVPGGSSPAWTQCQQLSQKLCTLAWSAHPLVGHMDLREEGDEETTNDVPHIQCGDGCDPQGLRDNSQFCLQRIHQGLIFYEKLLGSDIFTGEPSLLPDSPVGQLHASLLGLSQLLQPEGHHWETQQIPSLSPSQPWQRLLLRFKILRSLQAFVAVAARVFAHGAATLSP

IL-23 p40-p19-His = biological target: T2, IL-23 p40-p19-His (human); test: ELISA on IL-23 p40-p19-His
T2 construct: Single-chain fusion coated on the IL-23 ELISA plates; also called p40:p19-6×HIS
T2 chain: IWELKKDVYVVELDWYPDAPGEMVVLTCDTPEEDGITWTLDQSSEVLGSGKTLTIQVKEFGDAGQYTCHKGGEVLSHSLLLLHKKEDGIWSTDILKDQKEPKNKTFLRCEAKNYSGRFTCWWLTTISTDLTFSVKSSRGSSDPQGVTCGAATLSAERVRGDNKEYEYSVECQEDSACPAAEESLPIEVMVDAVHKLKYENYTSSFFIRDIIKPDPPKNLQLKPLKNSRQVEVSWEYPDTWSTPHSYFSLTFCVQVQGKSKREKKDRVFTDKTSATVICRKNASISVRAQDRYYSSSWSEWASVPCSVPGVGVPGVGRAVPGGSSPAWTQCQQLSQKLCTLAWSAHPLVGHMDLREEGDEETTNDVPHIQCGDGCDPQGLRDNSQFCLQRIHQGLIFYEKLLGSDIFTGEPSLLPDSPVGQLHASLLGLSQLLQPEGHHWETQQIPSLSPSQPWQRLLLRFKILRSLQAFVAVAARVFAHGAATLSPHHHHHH

[2] = biological target: T3, primate IL-23 (p40:p19 fusion, 6×HIS) (primate); test: cell-based or functional assay
T3 chain: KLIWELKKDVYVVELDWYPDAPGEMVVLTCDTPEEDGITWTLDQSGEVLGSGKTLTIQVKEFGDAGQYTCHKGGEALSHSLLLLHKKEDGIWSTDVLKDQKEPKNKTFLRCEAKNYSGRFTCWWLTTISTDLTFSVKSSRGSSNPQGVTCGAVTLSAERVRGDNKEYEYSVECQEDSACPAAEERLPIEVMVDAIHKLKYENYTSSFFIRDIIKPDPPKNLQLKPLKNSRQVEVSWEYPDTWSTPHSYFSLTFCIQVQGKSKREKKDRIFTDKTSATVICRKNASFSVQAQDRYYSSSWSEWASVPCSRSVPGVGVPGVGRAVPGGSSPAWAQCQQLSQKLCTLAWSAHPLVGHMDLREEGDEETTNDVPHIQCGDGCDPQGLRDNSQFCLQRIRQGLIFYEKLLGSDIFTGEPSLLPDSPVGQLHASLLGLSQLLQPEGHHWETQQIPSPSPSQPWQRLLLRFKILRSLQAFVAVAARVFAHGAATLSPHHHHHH

[3] = biological target: T1, human dimeric IL-23 (eBiosciences …); test: cell-based or functional assay; remark: listed apart in the source
human IL-12 [4] = biological target: T4, human IL-12 (human, UniProt P29459 23-219; P29460 23-328); test: IL-12 binding assay of the selection not described
T4 construct: Bioassay used Prospec-Tany Cyt-362
T4 sequence (looked up) 1: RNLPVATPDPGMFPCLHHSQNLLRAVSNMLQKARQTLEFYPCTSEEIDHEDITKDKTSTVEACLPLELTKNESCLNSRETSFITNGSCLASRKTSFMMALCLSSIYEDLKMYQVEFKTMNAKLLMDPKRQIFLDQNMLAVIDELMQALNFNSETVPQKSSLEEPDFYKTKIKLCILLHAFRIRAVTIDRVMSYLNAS
T4 sequence (looked up) 2: T1 sequence (looked up) 1

[5] = biological target: T1, human dimeric IL-23 (eBiosciences …); test: cell-based or functional assay; remark: listed apart in the source
monkey IL-12 (macaque) [6] = biological target: T5, monkey IL-12 (macaque) (macaque, UniProt P48091 23-219; P48095 23-328); test: cell-based or functional assay
T5 sequence (looked up) 1: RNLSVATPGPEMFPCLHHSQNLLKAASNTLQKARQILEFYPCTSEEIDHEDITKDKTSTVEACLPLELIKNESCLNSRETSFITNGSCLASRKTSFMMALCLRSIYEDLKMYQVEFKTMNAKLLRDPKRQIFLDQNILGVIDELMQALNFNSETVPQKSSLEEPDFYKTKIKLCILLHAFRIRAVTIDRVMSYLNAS
T5 sequence (looked up) 2: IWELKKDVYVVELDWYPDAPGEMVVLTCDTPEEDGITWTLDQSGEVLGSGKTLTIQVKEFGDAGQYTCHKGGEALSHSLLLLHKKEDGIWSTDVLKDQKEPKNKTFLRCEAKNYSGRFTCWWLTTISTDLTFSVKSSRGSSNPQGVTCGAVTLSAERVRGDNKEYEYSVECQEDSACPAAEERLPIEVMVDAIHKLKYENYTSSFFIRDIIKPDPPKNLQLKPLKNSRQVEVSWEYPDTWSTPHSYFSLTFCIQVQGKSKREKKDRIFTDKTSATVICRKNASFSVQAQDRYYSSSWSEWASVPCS

monkey IL-12 (macaque) [7] = biological target: T5, monkey IL-12 (macaque); test: cell-based or functional assay; remark: listed apart in the source
human IL-12 [8] = biological target: T4, human IL-12; test: cell-based or functional assay
[9] = biological target: T1, human dimeric IL-23 (eBiosciences …); test: cell-based or functional assay; remark: listed apart in the source
[10] = biological target: T1, human dimeric IL-23 (eBiosciences …); test: SPR (SensiQ Pioneer), mAb captured on protein G, human dimeric IL-23 as analyte (1-100 nM), 25 C, 1:1 model; the sentence names no analyte
Description: Equilibrium constants for rabbit human chimeric mAbs were determined by binding the mAb to the protein G coated chip followed by binding of each analyte (IL-6 or IL-23) to its respective mAb. In order to minimize mass transfer effects, the surface densities of the mAbs for each analyte were adjusted so that as analyte binding approached saturation its corresponding RU fell between 200 and 300. […] For each binding and dissociation cycle the chip surface was regenerated with 15 uL of 20 mM NaOH (5671-02, Mallinckrodt Baker, Philliphsburg, N.J.). The assay temperature was maintained at 25° C. with an analyte flow rate of 50 μL/min and included a 2 minute association phase and 10-30 minute dissociation phase. The on/off rates (kₐ/kd) and dissociation constants (KD) were determined using the format described above along with pseudo-first-order 1:1 interaction model software (Qdat, ICx Nomadics, Stillwater, Okla.).

[11] = biological target: T1, human dimeric IL-23 (eBiosciences …); test: cell-based or functional assay; remark: listed apart in the source
[12] = biological target: T1, human dimeric IL-23 (eBiosciences …); test: SPR; format for the anti-IL-23 scFv alone not described
[13] = biological target: T1, human dimeric IL-23 (eBiosciences …); test: cell-based or functional assay; remark: listed apart in the source
human IL-6 = human IL-6 (human, UniProt P05231 30-212); test: cell-based or functional assay

EC50: concentration necessary to inhibit bioactivity of 50 pg/ml of IL-6 [1] [ng/mL] | binding result (IL-23 p40-p19-His) | IC50 (read off the curve) (IL-17 from mouse splenocytes, OD450) [2] [ng/mL] | binding result (human IL-12 [4]) | IC50 (read off the curve) (monkey IL-12 (macaque) [6]) [ng/mL] | IC50 (read off the curve) (interferon-gamma from NK92 cells, OD450) (monkey IL-12 (macaque) [7]) [ng/mL] | further results | Binder
0.603 | binds | ~1 | binds | – | – | IC50 (read off the curve) (IL-17 from mouse splenocytes, OD450) [3]: ~1 ng/mL | B1
0.385 | binds | – | binds | ~4 | ~4 | IC50 (read off the curve) (IL-17 from mouse splenocytes, OD450) [5]: ~2 ng/mL | B2
0.603 | binds | ~4 | – | – | – | IC50 (read off the curve) (interferon-gamma from NK92 cells, OD450) (human IL-12 [8]): ~0.8 ng/mL; IC50 (read off the curve) (IL-17 from mouse splenocytes, OD450) [9]: ~0.8 ng/mL; Kd [10]: 221 pM; koff [10]: 8.94e-05 s⁻¹; kon [10]: 403000 M⁻¹ s⁻¹ | B3
– | – | – | – | ~10 | ~10 | EC50, inhibition of IL-23 induced IL-17 secretion by mouse spleen cells [11]: 1.37 ng/mL; Kd [12]: 92 pM; koff [12]: 7.11e-05 s⁻¹; kon [12]: 773000 M⁻¹ s⁻¹ | B4
– | – | – | – | – | – | EC50 (pg/mL) of the folded scFv-PEG [13]: 1040 pg/mL | B5
– | – | – | – | – | – | IC50 (read off the curve) (B9 proliferation, OD570-600) (human IL-6): ~0.7 ng/mL | B6
